Experimental data from the supplement of paper PMC7125110.
± gives the standard error. Variants at the floor of the assay were thinned out.

B1: glmS ribozyme (parent)
chain: AUAAAAGCGCCAGAACUACAGAAAUGUAGUUGACGAGGAGGAGGUUUAUCGAAUUUUCGGCGGAUGCCUCCAAA

What was measured:
Settings in all cases: with glucosamine-6-phosphate
[1] = variants of: B1; assay: self-cleavage kobs at 640 uM GlcN6P; higher = faster cleavage; RNA array
Summary of the method: (§1)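 kobs was derived by fitting per-tile medians to one- or two-exponential decays after normalising signals to baseline and to non-cleaving reference variants. Those signals came from barcoded ribozyme variants transcribed in situ by E. coli RNA polymerase on sequenced MiSeq chips, followed through a hybridised Cy3 probe at 37 °C and imaged over ~14 h. Glucosamine-6-phosphate (40 μM to 10 mM) in HEPES/KCl/Mg(OAc)2 buffer was flowed in. Weighted Michaelis–Menten fits across concentrations then gave kcat and KM.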

[2] = variants of: B1; assay: self-cleavage kobs at 2500 uM GlcN6P; higher = faster cleavage; RNA array
Summary of the method: as §1

[3] = variants of: B1; assay: self-cleavage kobs at 10000 uM GlcN6P; higher = faster cleavage; RNA array
Summary of the method: as §1

## U45A C58A C71U
[1]
  self-cleavage kobs at 640 uM GlcN6P: 0.000102 ± 2.9e-05 s⁻¹
[2]
  self-cleavage kobs at 2500 uM GlcN6P: 0.000293 ± 8.3e-05 s⁻¹

## U46A U47C C70A
[1]
  self-cleavage kobs at 640 uM GlcN6P: 9.01e-05 ± 2.2e-05 s⁻¹
[2]
  self-cleavage kobs at 2500 uM GlcN6P: 0.000206 ± 3.7e-05 s⁻¹

## C10A A12C G63C C71G
[1]
  self-cleavage kobs at 640 uM GlcN6P: < 1e-05 s⁻¹

## A14C G59C C71A
[1]
  self-cleavage kobs at 640 uM GlcN6P: < 1e-05 s⁻¹

## G7C A12U G41U
[1]
  self-cleavage kobs at 640 uM GlcN6P: < 1e-05 s⁻¹
[2]
  self-cleavage kobs at 2500 uM GlcN6P: < 1e-05 s⁻¹

## A6C C10A C34G C50U U56A
[1]
  self-cleavage kobs at 640 uM GlcN6P: < 1e-05 s⁻¹
[2]
  self-cleavage kobs at 2500 uM GlcN6P: < 1e-05 s⁻¹

## G32U A33G G38A
[1]
  self-cleavage kobs at 640 uM GlcN6P: < 1e-05 s⁻¹

## G32U U55A C71A
[1]
  self-cleavage kobs at 640 uM GlcN6P: 9.04e-05 ± 2.8e-05 s⁻¹
[2]
  self-cleavage kobs at 2500 uM GlcN6P: 8.28e-05 ± 3.5e-05 s⁻¹

## G7U A12U G40U U55C C71A
[1]
  self-cleavage kobs at 640 uM GlcN6P: < 1e-05 s⁻¹
[2]
  self-cleavage kobs at 2500 uM GlcN6P: < 1e-05 s⁻¹

## G38C A48C
[1]
  self-cleavage kobs at 640 uM GlcN6P: < 1e-05 s⁻¹
[2]
  self-cleavage kobs at 2500 uM GlcN6P: < 1e-05 s⁻¹
[3]
  self-cleavage kobs at 10000 uM GlcN6P: < 1e-05 s⁻¹

## G37C C68U U69G
[1]
  self-cleavage kobs at 640 uM GlcN6P: 6e-05 ± 2e-05 s⁻¹

## C16G A48U C50G C70A
[1]
  self-cleavage kobs at 640 uM GlcN6P: 5.34e-05 ± 2.6e-05 s⁻¹

## A15G G40U C50G G60C
[1]
  self-cleavage kobs at 640 uM GlcN6P: < 1e-05 s⁻¹

## G41A G44A G60A
[1]
  self-cleavage kobs at 640 uM GlcN6P: < 1e-05 s⁻¹

## G35C A52U C67U C68A
[1]
  self-cleavage kobs at 640 uM GlcN6P: < 1e-05 s⁻¹

## A18C G35U U57A
[1]
  self-cleavage kobs at 640 uM GlcN6P: < 1e-05 s⁻¹

## G35U G40U G63U C71G
[1]
  self-cleavage kobs at 640 uM GlcN6P: < 1e-05 s⁻¹

## C8A U45C C67U
[1]
  self-cleavage kobs at 640 uM GlcN6P: < 1e-05 s⁻¹

## A48U U49A C68A
[1]
  self-cleavage kobs at 640 uM GlcN6P: < 1e-05 s⁻¹

## G13U C16U G29A
[1]
  self-cleavage kobs at 640 uM GlcN6P: 0.000601 ± 0.00017 s⁻¹

## A42U U47A U54C
[1]
  self-cleavage kobs at 640 uM GlcN6P: 3.85e-05 ± 9.6e-06 s⁻¹

## A48G A53G C67G
[1]
  self-cleavage kobs at 640 uM GlcN6P: 6.02e-05 ± 2.2e-05 s⁻¹
[2]
  self-cleavage kobs at 2500 uM GlcN6P: 6.1e-05 ± 2.3e-05 s⁻¹

## A12C U47C G60U
[1]
  self-cleavage kobs at 640 uM GlcN6P: < 1e-05 s⁻¹

## C8U U46G C61A C68U
[1]
  self-cleavage kobs at 640 uM GlcN6P: < 1e-05 s⁻¹

## A14G G29U U30G A33C C61G G66U
[1]
  self-cleavage kobs at 640 uM GlcN6P: < 1e-05 s⁻¹
[2]
  self-cleavage kobs at 2500 uM GlcN6P: < 1e-05 s⁻¹

## U30G G37A
[1]
  self-cleavage kobs at 640 uM GlcN6P: 9.32e-05 ± 2.2e-05 s⁻¹
[2]
  self-cleavage kobs at 2500 uM GlcN6P: 0.000172 ± 4.2e-05 s⁻¹
[3]
  self-cleavage kobs at 10000 uM GlcN6P: 0.000734 ± 0.00011 s⁻¹

## G35A U46C G66A
[1]
  self-cleavage kobs at 640 uM GlcN6P: < 1e-05 s⁻¹

## G40A G41A C71A
[1]
  self-cleavage kobs at 640 uM GlcN6P: 6.52e-05 ± 1.3e-05 s⁻¹
[2]
  self-cleavage kobs at 2500 uM GlcN6P: 9.76e-05 ± 1.9e-05 s⁻¹

## G38A G44C C67U C71A
[1]
  self-cleavage kobs at 640 uM GlcN6P: < 1e-05 s⁻¹
[2]
  self-cleavage kobs at 2500 uM GlcN6P: < 1e-05 s⁻¹

## C8U A39U G59C
[1]
  self-cleavage kobs at 640 uM GlcN6P: < 1e-05 s⁻¹

## G40U U46C A53U
[1]
  self-cleavage kobs at 640 uM GlcN6P: 0.000351 ± 0.00012 s⁻¹
[3]
  self-cleavage kobs at 10000 uM GlcN6P: 0.000745 ± 0.00019 s⁻¹

## U45C A52G C70U
[1]
  self-cleavage kobs at 640 uM GlcN6P: 4.7e-05 ± 1.6e-05 s⁻¹
[2]
  self-cleavage kobs at 2500 uM GlcN6P: 6.92e-05 ± 1.3e-05 s⁻¹

## G43C C50A
[1]
  self-cleavage kobs at 640 uM GlcN6P: < 1e-05 s⁻¹
[2]
  self-cleavage kobs at 2500 uM GlcN6P: < 1e-05 s⁻¹

## U30G A39U U65C
[1]
  self-cleavage kobs at 640 uM GlcN6P: 0.000103 ± 3.8e-05 s⁻¹
[3]
  self-cleavage kobs at 10000 uM GlcN6P: 0.000419 ± 6.3e-05 s⁻¹

## A12G U45C C50U
[1]
  self-cleavage kobs at 640 uM GlcN6P: < 1e-05 s⁻¹
[2]
  self-cleavage kobs at 2500 uM GlcN6P: < 1e-05 s⁻¹

## G7A U31C A52G
[1]
  self-cleavage kobs at 640 uM GlcN6P: < 1e-05 s⁻¹

## G13A G29C G66U
[1]
  self-cleavage kobs at 640 uM GlcN6P: < 1e-05 s⁻¹

## C10U G32A U49A
[1]
  self-cleavage kobs at 640 uM GlcN6P: < 1e-05 s⁻¹

## A12C A15U A39G
[1]
  self-cleavage kobs at 640 uM GlcN6P: 0.000865 ± 0.00025 s⁻¹
[2]
  self-cleavage kobs at 2500 uM GlcN6P: 0.00201 ± 0.00075 s⁻¹
[3]
  self-cleavage kobs at 10000 uM GlcN6P: 0.003 ± 0.00075 s⁻¹

## G37U G38C U49G U56G
[1]
  self-cleavage kobs at 640 uM GlcN6P: < 1e-05 s⁻¹

## A12C G44U
[1]
  self-cleavage kobs at 640 uM GlcN6P: 9.03e-05 ± 1.7e-05 s⁻¹
[2]
  self-cleavage kobs at 2500 uM GlcN6P: 8.38e-05 ± 2.6e-05 s⁻¹
[3]
  self-cleavage kobs at 10000 uM GlcN6P: 0.000382 ± 5.4e-05 s⁻¹

## A42G A64G C71G
[1]
  self-cleavage kobs at 640 uM GlcN6P: 0.000615 ± 0.00014 s⁻¹
[2]
  self-cleavage kobs at 2500 uM GlcN6P: 0.00107 ± 0.0003 s⁻¹
[3]
  self-cleavage kobs at 10000 uM GlcN6P: 0.000757 ± 0.00025 s⁻¹

## C11U U31C G41C U49C G62A
[1]
  self-cleavage kobs at 640 uM GlcN6P: < 1e-05 s⁻¹

## G13C A48U A53U C61G
[1]
  self-cleavage kobs at 640 uM GlcN6P: < 1e-05 s⁻¹

## A6C A42C C50A U54G G59C C61U
[1]
  self-cleavage kobs at 640 uM GlcN6P: < 1e-05 s⁻¹

## G44A U46C U49C U54G C67G
[1]
  self-cleavage kobs at 640 uM GlcN6P: < 1e-05 s⁻¹
[2]
  self-cleavage kobs at 2500 uM GlcN6P: < 1e-05 s⁻¹

## C8U G37U C71G
[1]
  self-cleavage kobs at 640 uM GlcN6P: 0.000584 ± 0.00027 s⁻¹

## U30A G40U G63A A64G
[1]
  self-cleavage kobs at 640 uM GlcN6P: < 1e-05 s⁻¹

## C8G U31G C50G
[1]
  self-cleavage kobs at 640 uM GlcN6P: 7.77e-05 ± 3.6e-05 s⁻¹

## G38A U54G C71U
[1]
  self-cleavage kobs at 640 uM GlcN6P: < 1e-05 s⁻¹

## G13A A52C C58G U69G
[1]
  self-cleavage kobs at 640 uM GlcN6P: 4.44e-05 ± 2e-05 s⁻¹

## A33G G43U G59U A64G
[1]
  self-cleavage kobs at 640 uM GlcN6P: < 1e-05 s⁻¹
[2]
  self-cleavage kobs at 2500 uM GlcN6P: < 1e-05 s⁻¹

## C8A G9C G37C
[1]
  self-cleavage kobs at 640 uM GlcN6P: < 1e-05 s⁻¹

## G32U A42C C58U
[1]
  self-cleavage kobs at 640 uM GlcN6P: < 1e-05 s⁻¹
[2]
  self-cleavage kobs at 2500 uM GlcN6P: < 1e-05 s⁻¹

## A15U C50G G66C C71G
[1]
  self-cleavage kobs at 640 uM GlcN6P: 7.22e-05 ± 2.8e-05 s⁻¹
[2]
  self-cleavage kobs at 2500 uM GlcN6P: 9.27e-05 ± 3e-05 s⁻¹

## U31C A48G G60A
[1]
  self-cleavage kobs at 640 uM GlcN6P: < 1e-05 s⁻¹
[2]
  self-cleavage kobs at 2500 uM GlcN6P: < 1e-05 s⁻¹

## C10U G32C G35A
[1]
  self-cleavage kobs at 640 uM GlcN6P: < 1e-05 s⁻¹
[2]
  self-cleavage kobs at 2500 uM GlcN6P: < 1e-05 s⁻¹

## G9A A14G G38U
[1]
  self-cleavage kobs at 640 uM GlcN6P: < 1e-05 s⁻¹
[3]
  self-cleavage kobs at 10000 uM GlcN6P: < 1e-05 s⁻¹

## U55G U56A G60U C71U
[1]
  self-cleavage kobs at 640 uM GlcN6P: < 1e-05 s⁻¹

## A36C G41A C50G C58G
[1]
  self-cleavage kobs at 640 uM GlcN6P: < 1e-05 s⁻¹

## A39C C58G G63U U65A C71G
[1]
  self-cleavage kobs at 640 uM GlcN6P: < 1e-05 s⁻¹
[2]
  self-cleavage kobs at 2500 uM GlcN6P: < 1e-05 s⁻¹
[3]
  self-cleavage kobs at 10000 uM GlcN6P: < 1e-05 s⁻¹

## C8U A12U G51U
[1]
  self-cleavage kobs at 640 uM GlcN6P: < 1e-05 s⁻¹
[2]
  self-cleavage kobs at 2500 uM GlcN6P: < 1e-05 s⁻¹

## G32A G43A U57G
[1]
  self-cleavage kobs at 640 uM GlcN6P: < 1e-05 s⁻¹

## A14C G43U U56A C68U
[1]
  self-cleavage kobs at 640 uM GlcN6P: 9.14e-05 ± 2.6e-05 s⁻¹
[2]
  self-cleavage kobs at 2500 uM GlcN6P: 0.000133 ± 3.7e-05 s⁻¹

## G9A A42C G44A
[1]
  self-cleavage kobs at 640 uM GlcN6P: < 1e-05 s⁻¹
[2]
  self-cleavage kobs at 2500 uM GlcN6P: < 1e-05 s⁻¹

## A12G A36C A39C C71G
[1]
  self-cleavage kobs at 640 uM GlcN6P: < 1e-05 s⁻¹
[2]
  self-cleavage kobs at 2500 uM GlcN6P: < 1e-05 s⁻¹

## C8U C58U
[1]
  self-cleavage kobs at 640 uM GlcN6P: < 1e-05 s⁻¹

## G13A A14G G29C C50G
[1]
  self-cleavage kobs at 640 uM GlcN6P: 0.000185 ± 6.9e-05 s⁻¹

## G13U C16U A33C C68U
[1]
  self-cleavage kobs at 640 uM GlcN6P: < 1e-05 s⁻¹
